Test results: publication PMC7785020, “A unique hormonal recognition feature of the human glucagon-like peptide-2 receptor” (Cell Research, 2020)

Columns and labels:
GLP-2R Y182^1.43A = target: T1, GLP-2R Y182^1.43A (Homo sapiens, UniProt O95838, Y182A); experiment: cAMP accumulation, Y182^1.43A; format: cell-based; set-up: WT (1–553); expressed in transfected cells; HEK 293T (cAMP); conditions: Table S3, Y182A; HEK 293T, 30 min, RT; mean ± SEM, n ≥ 3 in duplicate; read-out: cAMP Emax (% WT)
T1 sequence (O95838 1-553 Y182A): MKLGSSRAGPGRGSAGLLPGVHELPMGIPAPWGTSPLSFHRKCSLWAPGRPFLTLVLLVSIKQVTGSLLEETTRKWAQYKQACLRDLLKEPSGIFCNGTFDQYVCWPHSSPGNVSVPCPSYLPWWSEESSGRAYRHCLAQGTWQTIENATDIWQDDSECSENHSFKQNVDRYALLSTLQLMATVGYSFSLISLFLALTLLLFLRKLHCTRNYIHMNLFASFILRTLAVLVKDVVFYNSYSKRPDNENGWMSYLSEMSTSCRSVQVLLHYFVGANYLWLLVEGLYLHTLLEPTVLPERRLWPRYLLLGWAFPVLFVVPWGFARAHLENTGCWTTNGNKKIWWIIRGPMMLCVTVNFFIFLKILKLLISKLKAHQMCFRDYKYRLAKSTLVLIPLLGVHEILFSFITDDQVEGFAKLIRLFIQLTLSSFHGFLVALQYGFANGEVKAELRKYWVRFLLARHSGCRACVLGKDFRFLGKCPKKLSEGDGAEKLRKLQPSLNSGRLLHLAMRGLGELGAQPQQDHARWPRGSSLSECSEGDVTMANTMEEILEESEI
Method: HEK 293T cells were cultured in Dulbecco’s Modified Eagle’s Medium (DMEM) (Gibco, Waltham, USA) supplemented with 10% (v/v) fetal bovine serum (FBS) (Gibco) and 1% (v/v) sodium pyruvate (Gibco) at 37 °C, 5% CO2 in a humidified incubator. They were seeded onto 6-well cell culture plates and transiently transfected with different GLP-2R constructs using Lipofectamine 2000 transfection reagent (Invitrogen, Carlsbad, CA, USA). After 24 h, the transfected cells were seeded onto 384-well microtiter plates (3000 cells per well) in HBSS supplemented with 5 mM HEPES, 0.1% (w/v) bovine serum albumin (BSA) and 0.5 mM 3-isobutyl-1- methylxanthine, and stimulated with increasing concentrations of GLP-2 for 30 min at RT. Eu and Ulight were diluted by cAMP detection buffer and added to the plates separately to terminate the reaction. Plates were incubated at RT for 60 min before measuring the fluorescence intensity at 620 nm and […] by an EnVision multilabel plate reader (PerkinElmer, Boston, USA).

[1] = target: GLP-2R D244^ECL1A (human) (UniProt O95838); experiment: radioligand binding; competition on transiently transfected COS-7 cells: unlabeled teduglutide 0.1 nM to 1 μM against 10–15 pM [125I]GLP-2(1–33, M10Y); 4 h, 4 °C; 50 mM HEPES pH 7.4, 1 mM CaCl2, 5 mM MgCl2, 0.5% BSA; three-parameter logistic fit
GLP-2R ECL1 (GLP-1R) = GLP-2R ECL1 (GLP-1R) (UniProt O95838); experiment: as above
[2] = target: GLP-2R R242^ECL1A (human) (UniProt O95838); experiment: as above
[3] = target: GLP-2R W249^ECL1A (human) (UniProt O95838); experiment: as above
[4] = target: GLP-2R K414^7.35 A (human) (UniProt O95838); experiment: as above
[5] = target: GLP-2R H268^3.37A (human) (UniProt O95838); experiment: as above
[6] = target: Human GLP-2R WT (1–553) (human) (UniProt O95838); experiment: as above
[7] = target: GLP-2R N247^ECL1A (human) (UniProt O95838); experiment: as above
[8] = target: GLP-2R R344^5.40A (human) (UniProt O95838); experiment: as above

Row | % Binding of WT [1] [%] | % Binding of WT (GLP-2R ECL1 (GLP-1R)) [%] | % Binding of WT [2] [%] | % Binding of WT [3] [%] | % Binding of WT [4] [%] | % Binding of WT [5] [%] | % Binding of WT [6] [%] | % Binding of WT [7] [%] | % Binding of WT [8] [%] | Molecule | Emax (GLP-2R Y182^1.43A) [%]
1 |  |  |  |  |  |  |  |  |  | CC[C@H](C)[C@H](NC(=O)[C@H](Cc1ccccc1)NC(=O)[C@H](CC(=O)O)NC(=O)[C@H](CCCNC(=N)N)NC(=O)[C@H](C)NC(=O)[C@H](C)NC(=O)[C@H](CC(C)C)NC(=O)[C@H](CC(N)=O)NC(=O)[C@H](CC(=O)O)NC(=O)[C@H](CC(C)C)NC(=O)[C@@H](NC(=O)[C@@H](NC(=O)[C@H](CC(N)=O)NC(=O)[C@H](CCSC)NC(=O)[C@H](CCC(=O)O)NC(=O)[C@H](CC(=O)O)NC(=O)[C@H](CO)NC(=O)[C@H](Cc1ccccc1)NC(=O)[C@H](CO)NC(=O)CNC(=O)[C@H](CC(=O)O)NC(=O)[C@H](C)NC(=O)[C@@H](N)Cc1c[nH]cn1)[C@@H](C)O)[C@@H](C)CC)C(=O)N[C@@H](CC(N)=O)C(=O)N[C@@H](Cc1c[nH]c2ccccc12)C(=O)N[C@@H](CC(C)C)C(=O)N[C@H](C(=O)N[C@@H](CCC(N)=O)C(=O)N[C@H](C(=O)N[C@@H](CCCCN)C(=O)N[C@H](C(=O)N[C@H](C(=O)N[C@@H](CC(=O)O)C(=O)O)[C@@H](C)O)[C@@H](C)CC)[C@@H](C)O)[C@@H](C)CC [Human GLP-2 (1–33)] | 102 ± 3.9
2 | 77.5 | 1.2 | 5.1 | 2.9 | 13.9 | 0.7 | 99.7 | 135 | 3.5 | [^125I]GLP-2(1–33, M10Y) (peptide) | 
